Earlier results in article PMC4941815.

How the values were obtained:
[1] = biological target: CLK1 (Homo sapiens) (UniProt P49759); assay: competition
[2] = biological target: SRPK1 (Homo sapiens) (UniProt Q96SB4); assay: competition
Chain of SRPK1 (Homo sapiens) (Q96SB4 whole entry): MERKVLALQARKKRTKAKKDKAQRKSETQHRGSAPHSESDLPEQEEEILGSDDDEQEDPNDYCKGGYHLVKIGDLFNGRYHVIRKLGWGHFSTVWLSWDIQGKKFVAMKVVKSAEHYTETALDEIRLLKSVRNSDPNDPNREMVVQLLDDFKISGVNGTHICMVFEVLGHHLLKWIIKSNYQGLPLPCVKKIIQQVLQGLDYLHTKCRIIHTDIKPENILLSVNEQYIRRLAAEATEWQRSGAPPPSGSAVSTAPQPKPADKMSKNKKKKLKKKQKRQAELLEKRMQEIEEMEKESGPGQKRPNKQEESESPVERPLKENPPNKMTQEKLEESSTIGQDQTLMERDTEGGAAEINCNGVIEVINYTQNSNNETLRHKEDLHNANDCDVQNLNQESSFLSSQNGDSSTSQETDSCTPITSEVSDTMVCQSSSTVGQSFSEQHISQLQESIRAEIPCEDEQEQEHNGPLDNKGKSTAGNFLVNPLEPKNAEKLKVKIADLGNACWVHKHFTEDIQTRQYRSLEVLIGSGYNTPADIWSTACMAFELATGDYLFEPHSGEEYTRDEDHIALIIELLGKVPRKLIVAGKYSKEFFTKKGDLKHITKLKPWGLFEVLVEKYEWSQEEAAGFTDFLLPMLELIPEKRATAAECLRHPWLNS

Chain of SRSF1 (Q07955 2-248): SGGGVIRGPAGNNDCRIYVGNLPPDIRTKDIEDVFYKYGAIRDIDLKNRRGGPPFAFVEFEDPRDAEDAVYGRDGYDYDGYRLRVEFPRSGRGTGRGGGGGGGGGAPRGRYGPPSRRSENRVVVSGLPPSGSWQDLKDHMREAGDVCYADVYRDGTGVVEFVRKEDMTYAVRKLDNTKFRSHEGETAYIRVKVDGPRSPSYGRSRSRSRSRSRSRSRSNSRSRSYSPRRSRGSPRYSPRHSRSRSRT
Chain of CLK1 (Homo sapiens) (P49759 whole entry): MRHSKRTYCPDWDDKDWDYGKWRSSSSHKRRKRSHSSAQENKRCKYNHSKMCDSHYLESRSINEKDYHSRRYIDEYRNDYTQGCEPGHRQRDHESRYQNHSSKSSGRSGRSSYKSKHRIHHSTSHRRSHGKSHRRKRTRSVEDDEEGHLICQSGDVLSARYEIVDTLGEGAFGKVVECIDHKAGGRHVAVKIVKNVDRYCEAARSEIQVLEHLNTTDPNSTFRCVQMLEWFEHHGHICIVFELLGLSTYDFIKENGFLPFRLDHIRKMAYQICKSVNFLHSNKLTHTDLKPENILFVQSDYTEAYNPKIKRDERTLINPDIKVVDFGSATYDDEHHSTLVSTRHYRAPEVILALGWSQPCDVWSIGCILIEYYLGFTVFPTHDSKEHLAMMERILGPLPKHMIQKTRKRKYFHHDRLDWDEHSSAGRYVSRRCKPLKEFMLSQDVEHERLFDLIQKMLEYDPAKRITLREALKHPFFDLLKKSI

Kd [1]: 6 nM
Kd [2]: 60 nM
Substance: SRSF1 (from UniProt Q07955)
